B1: Transcriptional repressor p66-beta, residues 415 to 455; numbered along this chain, Q8WXI9 (parent)
chain: VEPFVCAQCRTDFTPHWKQEKNGKILCEQCMTSNQKKALKA

Variants of: B1
Test: abundance fitness (aPCA) (normalised: wild type 0, dead -1); higher = more abundant; growth selection in yeast, the domain comes from the species named
Settings: Homo sapiens

Abundance fitness of substitutions, site by site:
C9: S -0.733; M -0.716; K -0.148; P -0.049; T -0.203; W -0.999; Y -0.937; E -0.235; N -0.717; H 0.389; Q -0.09; G -0.262; A -0.417; R -0.436; D -0.271
C6: F -0.944; G -1.02; E -1.02; Y -0.23; S -0.911; T 0.403; D -0.718; L -0.939; R -1; W -0.955; K -0.368; V -1.08; N -0.317; M -1.12; A -0.771
R10: S 0.717; N -0.022; P 0.352; H 1.1; L 0.585; Y 0.518; E 0.27; A 0.904; K 0.409; C 0.957; F 0.608; W 0.338; I 0.521; V 0.703; D 0.014
Q8: E 0.849; L 0.723; H 0.58; V 0.896; K 0.788; G 0.934; M 0.657; N 0.741; S 0.839; C 0.506; A 0.821; W 0.557; T 0.864; Y 0.428; P -0.393; R 0.843
F4: A 0.101; L 0.036; G 0.044; R -0.19; E -0.134; S -0.169; N 0.34; H 0.114; D 0.282; T -0.126; P -0.208; K -0.137; M 0.64; Y -0.14; C 0.659; I 0.125
N22: V 0.193; T 0.079; R 0.208; S 0.382; G 0.439; P 0.027; D 0.011; C 0.289; K 0.066; W 0.137; L -0.241; Y 0.19; Q 0.106; A 0.05; F -0.377
W17: I 0.013; S 0.127; Y 0.557; T 0.564; H 0.009; Q 0.523; C 0.149; L 0.051; K 0.387; P -0.135; V 0.082; R 0.092; E 0.196; A -0.009; D 0.285
T14: E -0.041; Y 0.264; I -0.298; K -0.014; A -0.185; W -0.521; L -0.035; V 0.144; R -0.237; D -0.347; P 0.137; F -0.056; H -0.039; Q -0.078; C -0.145; M -0.527; G -0.395; S -0.042
H16: K -0.28; N -0.319; S -0.084; G -0.022; F -0.005; M -0.1; I -0.073; A -0.077; T 0.09; Y -0.004; C 0.072; W 0.017; Q -0.14; L -0.272; P -0.23; R -0.05; D 0.015; E -0.042
A7: I 0.078; Y -0.309; S 0.523; N 0.121; F 0.068; W -0.223; K 0.09; G 0.368; R 0.075; V 0.363; M -0.165; L -0.158; T 0.208; H 0.534; P -0.091; C 0.325; D 0.27; E 0.188
Q19: K 0.143; N 0.136; C 0.103; V 0.159; T -0.346; S -0.044; R -0.029; P 0.109; D 0.212; M 0.026; A 0.106; E 0.163; G 0.323
K18: G 0.098; H 0.155; P -0.165; F -0.312; Q -0.105; L -0.217; C 0.01; E 0.098; R -0.072; Y -0.447; M -0.011; I -0.295; V 0.011; D -0.099; T -0.164; W -0.195; S 0.021
V5: R -0.027; C -0.351; W -0.405; I -0.126; G -0.302; T 0.041; K 0.027; A 0.116; F -0.288; E -0.226; M -0.03; S 0.136; Q 0.14; D -0.568; P -0.29; L 0.18
D12: Q -0.208; K -0.274; L -0.198; A 0.064; N 0.187; T -0.016; V 0.312; P -0.118; H 0.081; E 0.032; F -0.149; S 0.117; Y -0.025; C 0.141
F13: D -0.21; L -0.179; S -0.164; K -0.629; W -0.213; R -0.144; Q -0.593; V 0.337; E -0.007; T 0.039; G -0.116; M 0.192; H -0.244; A 0.139
P3: K -0.118; S 0.398; L 0.095; R 0.121; T -0.066; D -0.521; V -0.057; H 0.215; A 0.313; C 0.488; W -0.243; E 0.213; G 0.22; I 0.284
K21: G 0.145; R 0.129; Q 0.235; W 0.037; S -0.104; A 0.008; V -0.026; P 0.264; M -0.054
T11: H 0.346; K 0.427; Q 0.312; W -0.133; G 0.354; M 0.436; C 0.183; L 0.156; D 0.066; E 0.312; V 0.587; S 0.058; R 0.1; F -0.306; P -0.025
G23: A 0.148
E20: V -0.013; K -0.468; A -0.498; T -0.315; S -0.115; C 0.158; W -0.362; D -0.645; R -0.314; P -0.631; G -0.034; F -0.696; Q -0.303; I 0.391; L -0.254
E2: T 0.056; C -0.112; A -0.352; L -0.469; S -0.074; I -0.342; D 1.14; Q -0.297; P -0.29; Y -0.114; R -0.55; M -0.019; K -0.324; V -0.227; N 0.866; G -0.299; H 0.197; F -0.1; W -0.651
V1: K 0.195; A -0.29; D -0.002; G 0.024; I -0.288; T -0.187; M 0.212; N -0.178; F -0.17; R -0.054; E 0.067; S -0.444
P15: A -0.011; F -0.351; W -0.401; T 0.078; I -0.154; C 0.051; E -0.102; V 0.015; M -0.111; D 0.212; L -0.018; R -0.15; G -0.048; Q -0.137
